The target in data set [1] is APG05840.1-L16-nAPG07433.1 (truncated deaminase) (synthetic). The experiment in a line: cell_activity; HEK293FT; PAM SEQ 152. The note with it: tags: SV40 NLS, 3xFLAG N-term; nucleoplasmin NLS C-term. The method, then: (§1) 500 ng of plasmid comprising an expression cassette comprising a coding sequence for each fusion protein shown in Table 3 and 500 ng of plasmid comprising an expression cassette encoding an sgRNA shown in Table 4 were co-transfected into HEK293FT cells at 75-90% confluency in 24-well plates using Lipofectamine 2000 reagent (Life Technologies). Cells were then incubated at […] for 72 h. Following incubation, genomic DNA was then extracted using NucleoSpin 96 Tissue (Macherey-Nagel) following the manufacturer's protocol. The genomic region flanking the targeted genomic site was PCR amplified using the primers in Table 4 and products were purified using ZR-96 DNA Clean and Concentrator (Zymo Research) following the manufacturer's protocol. The purified PCR products were then sent for Next Generation Sequencing on Illumina MiSeq (2×250). Results were analyzed for INDEL formation or introduction of % specific cytosine mutations.
(§2) The position of each nucleotide in the target sequence was determined. “C17” indicates, for example, a cytosine at position 17 of the target sequence. The position of each nucleotide in the target sequence was determined by numbering the first nucleotide in the target sequence closest to the PAM as position 1, and the position number increases in the 3′ direction away from the PAM sequence.

For data set [2], the target named is T1, APG09980.1-L16-nAPG07433.1 (truncated deaminase) (synthetic).
T1 chain: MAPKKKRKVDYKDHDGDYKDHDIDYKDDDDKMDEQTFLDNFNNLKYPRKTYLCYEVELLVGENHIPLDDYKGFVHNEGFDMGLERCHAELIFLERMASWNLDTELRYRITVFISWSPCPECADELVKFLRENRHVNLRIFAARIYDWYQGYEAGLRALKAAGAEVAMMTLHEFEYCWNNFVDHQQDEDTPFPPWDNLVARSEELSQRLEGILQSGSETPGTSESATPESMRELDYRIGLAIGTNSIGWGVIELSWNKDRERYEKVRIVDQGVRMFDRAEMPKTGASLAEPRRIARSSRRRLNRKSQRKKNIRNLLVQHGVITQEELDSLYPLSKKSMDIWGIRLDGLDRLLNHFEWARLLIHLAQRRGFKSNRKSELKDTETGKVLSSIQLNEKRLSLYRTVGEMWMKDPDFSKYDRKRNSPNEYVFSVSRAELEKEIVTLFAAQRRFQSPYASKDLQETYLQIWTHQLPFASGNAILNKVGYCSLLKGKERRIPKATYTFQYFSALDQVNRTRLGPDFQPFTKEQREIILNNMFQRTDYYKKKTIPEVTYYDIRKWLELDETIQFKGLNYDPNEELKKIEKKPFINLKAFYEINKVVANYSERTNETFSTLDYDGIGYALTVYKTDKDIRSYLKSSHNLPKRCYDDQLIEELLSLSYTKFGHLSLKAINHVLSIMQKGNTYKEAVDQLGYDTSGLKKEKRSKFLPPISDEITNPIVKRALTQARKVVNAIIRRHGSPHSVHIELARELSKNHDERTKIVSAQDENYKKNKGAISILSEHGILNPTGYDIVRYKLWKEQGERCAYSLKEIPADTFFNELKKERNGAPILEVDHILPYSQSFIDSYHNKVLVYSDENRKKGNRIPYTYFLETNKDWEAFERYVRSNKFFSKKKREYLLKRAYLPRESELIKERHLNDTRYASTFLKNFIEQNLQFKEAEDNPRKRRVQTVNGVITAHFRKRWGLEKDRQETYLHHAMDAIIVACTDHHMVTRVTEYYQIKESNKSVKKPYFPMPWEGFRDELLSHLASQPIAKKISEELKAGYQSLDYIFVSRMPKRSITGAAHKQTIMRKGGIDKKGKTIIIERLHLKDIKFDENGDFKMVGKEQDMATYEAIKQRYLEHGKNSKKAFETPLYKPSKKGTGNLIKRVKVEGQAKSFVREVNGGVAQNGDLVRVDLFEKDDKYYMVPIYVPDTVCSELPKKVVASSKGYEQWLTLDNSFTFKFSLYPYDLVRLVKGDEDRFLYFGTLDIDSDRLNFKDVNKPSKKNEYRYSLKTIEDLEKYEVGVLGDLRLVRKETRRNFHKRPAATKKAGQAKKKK
The experiment in a line: cell_activity; HEK293FT; PAM SEQ 152. The note with it: tags: SV40 NLS, 3xFLAG N-term; nucleoplasmin NLS C-term. The method, then:
as §1, §2

The source of these data is patent US20240301385, “DNA MODIFYING ENZYMES AND ACTIVE FRAGMENTS AND VARIANTS THEREOF AND METHODS OF USE” (LIFEEDIT THERAPEUTICS, INC., published 2024).

B1: SGN000169 sgRNA ; SGN000169 target (ssRNA ; dsDNA)
RNA: CACAUCUCGAGCAAGACGUUGUCAUAGUUCCAUUAAAGCCAAAAGUGGCUUUGAUGUUUCUAUGAUAAGGGUUUCGACCCGUGGCGUCGGGGAUCGCCUGCCCAUUGAAAUGGGCUUCUCCCCAUUUAUU
DNA 1: CACATCTCGAGCAAGACGTT
DNA 2: AACGTCTTGCTCGAGATGTG
As to B1, the activity in data set [1] came out at 30.2 % mutated reads; in data set [2], 24.1 % mutated reads.

B2: SGN001101 sgRNA ; SGN001101 target (ssRNA ; dsDNA)
RNA: AUAUUUUCUUUAAUGGUGCCAGGCAGUCAUAGUUCCAUUAAAGCCAAAAGUGGCUUUGAUGUUUCUAUGAUAAGGGUUUCGACCCGUGGCGUCGGGGAUCGCCUGCCCAUUGAAAUGGGCUUCUCCCCAU
DNA 1: ATATTTTCTTTAATGGTGCCAGGCA
DNA 2: TGCCTGGCACCATTAAAGAAAATAT
As for B2, the activity in data set [1] was 23.8 % mutated reads; in data set [2], 30.5 % mutated reads.

B3: SGN000929 sgRNA ; SGN000929 target (ssRNA ; dsDNA)
RNA: AUCUGGAGGGAACUUACAGCAUAUGGUCAUAGUUCCAUGAAAGCCAAAAGUGGCUUUGAUGUUUCUAUGAUAAGGGUUUCGGCCCGUGGCGUCGGGGAUCGCCUGCCCAUUCCGAUGGGCUUCUCCCCAUUUAUU
DNA 1: ATCTGGAGGGAACTTACAGCATATG
DNA 2: CATATGCTGTAAGTTCCCTCCAGAT
As to B3, the activity came to 22.3 % mutated reads in data set [1] and 25.9 % mutated reads in data set [2].
